First the molecules themselves.
B1: Histone deacetylase 3 (Homo sapiens), O15379 (parent)
chain: MAKTVAYFYDPDVGNFHYGAGHPMKPHRLALTHSLVLHYGLYKKMIVFKPYQASQHDMCRFHSEDYIDFLQRVSPTNMQGFTKSLNAFNVGDDCPVFPGLFEFCSRYTGASLQGATQLNNKICDIAINWAGGLHHAKKFEASGFCYVNDIVIGILELLKYHPRVLYIDIDIHHGDGVQEAFYLTDRVMTVSFHKYGNYFFPGTGDMYEVGAESGRYYCLNVPLRDGIDDQSYKHLFQPVINQVVDFYQPTCIVLQCGADSLGCDRLGCFNLSIRGHGECVEYVKSFNIPLLVLGGGGYTVRNVARCWTYETSLLVEEAISEELPYSEYFEYFAPDFTLHPDVSTRIENQNSRQYLDQIRQTIFENLKMLNHAPSVQIHDVPADLLTYDRTDEADAEERGPEENYSRPEAPNEFYDGDHDNDKESDVEI

One assay covers variants of B1. Particulars: with ncor2_human NCOR2, Q9Y618.
Sequence of ncor2_human NCOR2, Q9Y618 (Q9Y618 whole entry): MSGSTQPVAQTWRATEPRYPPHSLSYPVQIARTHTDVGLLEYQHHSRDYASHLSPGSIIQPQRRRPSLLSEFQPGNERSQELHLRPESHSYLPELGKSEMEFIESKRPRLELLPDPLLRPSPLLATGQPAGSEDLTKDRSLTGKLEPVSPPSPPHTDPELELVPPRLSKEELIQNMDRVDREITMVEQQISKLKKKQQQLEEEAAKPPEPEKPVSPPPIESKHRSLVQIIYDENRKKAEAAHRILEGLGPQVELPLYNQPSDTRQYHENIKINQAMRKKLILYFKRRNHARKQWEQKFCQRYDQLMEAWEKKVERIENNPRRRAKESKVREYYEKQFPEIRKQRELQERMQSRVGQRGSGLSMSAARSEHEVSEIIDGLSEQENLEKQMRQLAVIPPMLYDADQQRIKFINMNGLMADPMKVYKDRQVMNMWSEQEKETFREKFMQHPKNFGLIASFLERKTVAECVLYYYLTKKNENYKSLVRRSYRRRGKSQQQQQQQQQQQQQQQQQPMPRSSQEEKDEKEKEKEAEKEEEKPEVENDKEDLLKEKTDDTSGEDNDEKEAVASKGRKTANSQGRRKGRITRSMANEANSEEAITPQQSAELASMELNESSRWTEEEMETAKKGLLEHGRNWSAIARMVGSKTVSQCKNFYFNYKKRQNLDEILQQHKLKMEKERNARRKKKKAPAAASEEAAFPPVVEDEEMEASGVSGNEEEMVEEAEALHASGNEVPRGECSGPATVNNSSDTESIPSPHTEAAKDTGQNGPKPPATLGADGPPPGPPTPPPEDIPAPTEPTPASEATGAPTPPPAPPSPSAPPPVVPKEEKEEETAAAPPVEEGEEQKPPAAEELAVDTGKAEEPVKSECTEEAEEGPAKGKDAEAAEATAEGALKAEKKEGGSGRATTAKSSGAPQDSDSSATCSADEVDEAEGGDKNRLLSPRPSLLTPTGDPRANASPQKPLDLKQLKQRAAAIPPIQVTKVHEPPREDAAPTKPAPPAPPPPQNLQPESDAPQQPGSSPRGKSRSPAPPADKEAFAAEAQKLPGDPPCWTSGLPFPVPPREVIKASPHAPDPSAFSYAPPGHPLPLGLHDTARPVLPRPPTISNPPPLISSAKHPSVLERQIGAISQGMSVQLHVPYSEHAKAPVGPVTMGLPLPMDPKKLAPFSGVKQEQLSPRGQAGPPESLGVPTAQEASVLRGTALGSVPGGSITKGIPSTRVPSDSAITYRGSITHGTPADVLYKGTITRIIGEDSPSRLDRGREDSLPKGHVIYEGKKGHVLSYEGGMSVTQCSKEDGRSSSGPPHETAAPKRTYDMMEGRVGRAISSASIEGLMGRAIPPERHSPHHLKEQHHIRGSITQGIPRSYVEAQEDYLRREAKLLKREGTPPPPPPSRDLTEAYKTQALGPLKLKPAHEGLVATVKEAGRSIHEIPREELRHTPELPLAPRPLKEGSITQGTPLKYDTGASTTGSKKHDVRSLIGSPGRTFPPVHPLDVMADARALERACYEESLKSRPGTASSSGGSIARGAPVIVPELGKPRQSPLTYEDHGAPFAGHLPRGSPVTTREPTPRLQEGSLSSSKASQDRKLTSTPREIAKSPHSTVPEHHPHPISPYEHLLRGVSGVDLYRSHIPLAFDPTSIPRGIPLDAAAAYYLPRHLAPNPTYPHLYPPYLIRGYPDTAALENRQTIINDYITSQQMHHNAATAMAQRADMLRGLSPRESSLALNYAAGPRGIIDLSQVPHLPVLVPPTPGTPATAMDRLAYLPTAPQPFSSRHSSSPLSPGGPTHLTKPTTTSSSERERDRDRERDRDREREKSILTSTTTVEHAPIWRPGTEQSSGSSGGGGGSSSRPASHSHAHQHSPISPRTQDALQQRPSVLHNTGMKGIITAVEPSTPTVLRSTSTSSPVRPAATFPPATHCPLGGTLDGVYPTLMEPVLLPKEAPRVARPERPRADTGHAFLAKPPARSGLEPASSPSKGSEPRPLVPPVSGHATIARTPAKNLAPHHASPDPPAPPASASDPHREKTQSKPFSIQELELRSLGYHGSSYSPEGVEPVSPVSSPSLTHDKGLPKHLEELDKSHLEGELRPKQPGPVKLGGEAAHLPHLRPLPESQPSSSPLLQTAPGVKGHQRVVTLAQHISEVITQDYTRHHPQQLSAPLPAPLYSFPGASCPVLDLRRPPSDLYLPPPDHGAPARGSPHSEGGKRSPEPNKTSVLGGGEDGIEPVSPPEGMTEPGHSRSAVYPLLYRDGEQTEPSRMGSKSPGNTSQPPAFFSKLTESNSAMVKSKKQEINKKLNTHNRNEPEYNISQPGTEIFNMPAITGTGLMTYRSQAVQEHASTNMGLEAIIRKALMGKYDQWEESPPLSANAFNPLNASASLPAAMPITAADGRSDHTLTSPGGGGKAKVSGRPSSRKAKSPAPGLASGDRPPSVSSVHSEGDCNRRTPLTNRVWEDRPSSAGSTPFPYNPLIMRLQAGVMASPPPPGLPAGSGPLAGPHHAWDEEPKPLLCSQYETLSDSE
Consider R265P;L266M, for which the “effect of a mutation on the interaction” value is reported as “disrupting interaction”. On the same count and under the same terms, then H17C;G21A;K25I, with “disrupting interaction”; and H17C;G21A;K25I;R265P;L266M, with “disrupting interaction”; and R265P, with “disrupting interaction”.

The variants in a further assay derive from B1. Particulars: with ncor2_human NCOR2, Q9Y618. The source holds these as a separate data set.
As to H17C;G21A;K25I;R265P;L266M, the “effect of a mutation on the interaction” value is recorded as “disrupting interaction”.

For the origin of these results see IntAct's records for PubMed 22230954.
